Molecular target: zFGF5 (human) (UniProt O76093)
Test: cell-based or functional assay

Chain of zFGF5 (human) (O76093 28-207): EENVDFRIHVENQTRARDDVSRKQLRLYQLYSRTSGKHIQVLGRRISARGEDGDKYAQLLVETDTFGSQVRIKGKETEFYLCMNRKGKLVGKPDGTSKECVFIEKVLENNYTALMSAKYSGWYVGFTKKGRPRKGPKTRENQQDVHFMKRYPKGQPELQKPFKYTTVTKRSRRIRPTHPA

In the case of “FGFR2α-IIIb/Fc (from UniProt P21802 22-378) (Fc fusion)”, the Cell Proliferation (percent of control), BAF3/FGFR3α-IIIc cells with zFGF5, soluble receptor at 0 fold-excess (percent of control) is reported as 100, the Cell Proliferation (percent of control), BAF3/FGFR3α-IIIc cells with zFGF5, soluble receptor at 62.5 fold-excess (percent of control) is reported as 101 and the Cell Proliferation (percent of control), BAF3/FGFR3α-IIIc cells with zFGF5, soluble receptor at 125 fold-excess (percent of control) is reported as 90. The Cell Proliferation (percent of control), BAF3/FGFR3α-IIIc cells with zFGF5, soluble receptor at 250 fold-excess (percent of control) was 91, the Cell Proliferation (percent of control), BAF3/FGFR3α-IIIc cells with zFGF5, soluble receptor at 500 fold-excess (percent of control) was 101 and the Cell Proliferation (percent of control), BAF3/FGFR3α-IIIc cells with zFGF5, soluble receptor at 1000 fold-excess (percent of control) was 99.
